Our source for the IC50 and Kd values is the Immune Epitope Database (IEDB).

Experiment [1] addresses HLA-B*27:05. The experiment can be described thus: IEDB peptide-MHC binding, cellular MHC/competitive/radioactivity; ≥ and ≤ were set here for values at or beyond the usual limits of such assays. The settings on record: source organism: Hepacivirus hominis.
The target in another experiment is HLA-A*02:50. The experiment can be described thus: IEDB peptide-MHC binding, purified MHC/competitive/fluorescence; filed as Kd, often an IC50 or EC50 that approximates it; ≥ and ≤ were set here for values at or beyond the usual limits of such assays. The settings on record: source organism: Vibrio vulnificus YJ016.
Another experiment has as its target HLA-B*15:01. Nature of the experiment: IEDB peptide-MHC binding, purified MHC/direct/fluorescence; filed as Kd, often an IC50 or EC50 that approximates it; ≥ and ≤ were set here for values at or beyond the usual limits of such assays. The settings on record: source organism: Vibrio vulnificus.
Experiment [2] addresses HLA-A*02:06. The description is as above. Conditions: source organism: Vibrio vulnificus CMCP6.
The target in the next experiment is HLA-B*08:02. Described as above. Conditions: source organism: Vibrio vulnificus CMCP6.
A further experiment has as its target HLA-A*03:01. Described as above. The settings on record: source organism: Vibrio vulnificus.
Experiment [3] concerns the target HLA-B*58:01. Described as above. The settings on record: source organism: Vibrio vulnificus.
In another experiment the target is HLA-B*40:01. Described as above. The settings on record: source organism: Vibrio vulnificus.
A further experiment concerns the target HLA-A*24:02. The experiment is described as above. Conditions: source organism: Vibrio vulnificus.
Another experiment addresses HLA-B*46:01. The experiment is described as above. The settings on record: source organism: Vibrio vulnificus.
For another experiment, the target named is HLA-B*44:02. Described as above. The settings on record: source organism: Vibrio vulnificus.
In the next experiment the target is HLA-B*07:02. The experiment is described as above. The settings on record: source organism: Vibrio vulnificus.
Experiment [4] addresses HLA-B*27:05. The description is as above. The settings on record: source organism: Vibrio vulnificus.
In experiment [5] the target is HLA-A*02:01. The description is as above. The settings on record: source organism: Vibrio vulnificus.
The target of the next experiment is HLA-A*02:11. The experiment is described as above. The settings on record: source organism: Vibrio vulnificus CMCP6.
The target of the next experiment is HLA-A*69:01. Described as above. The settings on record: source organism: Vibrio vulnificus.
The target of experiment [6] is HLA-A*02:03. The description is as above. Conditions: source organism: Vibrio vulnificus CMCP6.
The target of experiment [7] is HLA-A*01:01. Described as above. Conditions: source organism: Vibrio vulnificus.
For a further experiment, the target named is HLA-A*02:12. The description is as above. Conditions: source organism: Vibrio vulnificus CMCP6.
A further experiment concerns the target HLA-A*11:01. The description is as above. The settings on record: source organism: Vibrio vulnificus.
Another experiment addresses HLA-B*18:01. Described as above. Conditions: source organism: Vibrio vulnificus.
The target in the next experiment is HLA-A*31:01. Described as above. The settings on record: source organism: Vibrio vulnificus.
Another experiment has as its target HLA-A*02:19. The experiment is described as above. The settings on record: source organism: Vibrio vulnificus CMCP6.
The target of another experiment is HLA-B*08:01. The description is as above. The settings on record: source organism: Vibrio vulnificus CMCP6.
Experiment [8] concerns the target HLA-A*02:06. The experiment can be described thus: IEDB peptide-MHC binding, purified MHC/competitive/radioactivity; ≥ and ≤ were set here for values at or beyond the usual limits of such assays. The settings on record: source organism: Hepatitis C virus (isolate H77).
Another experiment has as its target HLA-A*02:02. The description is as above. Conditions: source organism: Hepatitis C virus (isolate H77).
For experiment [9], the target named is HLA-A*02:01. The experiment is described as above. The settings on record: source organism: Hepatitis C virus (isolate H77).
Experiment [10] deals with HLA-A*02:03. The experiment is described as above. Conditions: source organism: Hepatitis C virus (isolate H77).
Experiment [11] addresses HLA-B*58:01. Nature of the experiment: IEDB peptide-MHC binding, purified MHC/competitive/fluorescence; filed as Kd, often an IC50 or EC50 that approximates it; ≥ and ≤ were set here for values at or beyond the usual limits of such assays. Conditions: source organism: Shigella flexneri 2a str. 2457T.
The next experiment concerns the target HLA-B*35:01. Described as above. Conditions: source organism: Shigella flexneri 2a str. 2457T.
For experiment [12], the target named is HLA-A*01:01. The description is as above. Conditions: source organism: Shigella flexneri 2a str. 2457T.
Experiment [13] concerns the target HLA-C*04:01. Nature of the experiment: IEDB peptide-MHC binding, purified MHC/direct/fluorescence; filed as Kd, often an IC50 or EC50 that approximates it; ≥ and ≤ were set here for values at or beyond the usual limits of such assays. Conditions: source organism: Shigella flexneri 2a str. 2457T.
A further experiment deals with HLA-C*08:02. Described as above. Conditions: source organism: Shigella flexneri 2a str. 2457T.
Experiment [14] addresses HLA-C*04:01. The experiment can be described thus: IEDB peptide-MHC binding, purified MHC/competitive/fluorescence; filed as Kd, often an IC50 or EC50 that approximates it; ≥ and ≤ were set here for values at or beyond the usual limits of such assays. Conditions: source organism: Acetivibrio thermocellus ATCC 27405.
In another experiment the target is HLA-B*15:42. The description is as above. Conditions: source organism: Acetivibrio thermocellus ATCC 27405.
The next experiment deals with HLA-B*45:06. The description is as above. Conditions: source organism: Acetivibrio thermocellus ATCC 27405.
The target in the next experiment is HLA-B*83:01. The experiment is described as above. The settings on record: source organism: Acetivibrio thermocellus ATCC 27405.
Another experiment addresses HLA-C*14:02. The experiment can be described thus: IEDB peptide-MHC binding, purified MHC/direct/fluorescence; filed as Kd, often an IC50 or EC50 that approximates it; ≥ and ≤ were set here for values at or beyond the usual limits of such assays. The settings on record: source organism: Variola virus.

Consider ARHTPVNSW, for which, in the experiment with HLA-B*27:05 [1], the IC50 – broadly, the concentration needed to halve the response being measured – is 338 nM.

Turning to GLKELGDWV, the Kd (as a rule, a measure of binding affinity in units of concentration) with HLA-A*02:50 is ≤ 0.1 nM; with HLA-B*15:01, ≥ 20000 nM; with HLA-A*02:06 [2] it was 145 nM; with HLA-B*08:02 it was ≥ 20000 nM; with HLA-A*03:01, ≥ 20000 nM; in the experiment with HLA-B*58:01 [3] it was ≥ 20000 nM. Also, the Kd in the experiment with HLA-B*40:01, with HLA-A*24:02, in the experiment with HLA-B*46:01, with HLA-B*44:02, with HLA-B*07:02 and with HLA-B*27:05 [4] was ≥ 20000 nM in each case. The Kd was 637 nM with HLA-A*02:01 [5]; 9 nM with HLA-A*02:11; ≥ 5000 nM with HLA-A*69:01; 2 nM in the experiment with HLA-A*02:03 [6]; ≥ 20000 nM in the experiment with HLA-A*01:01 [7]; 120 nM with HLA-A*02:12. Besides, the dissociation constant Kd with HLA-A*11:01, with HLA-B*18:01, with HLA-A*31:01, in the experiment with HLA-A*02:19 and with HLA-B*08:01 was ≥ 20000 nM in each case.

Consider KLVGLGLNAV, for which the IC50 is 9 nM in the experiment with HLA-A*02:06 [8], 14 nM with HLA-A*02:02, 17 nM with HLA-A*02:01 [9] and 8.2 nM in the experiment with HLA-A*02:03 [10].

For MSPDNALIY, the Kd with HLA-B*58:01 [11] is 457 nM; with HLA-B*35:01, 7.2 nM; with HLA-A*01:01 [12], 89.9 nM; with HLA-C*04:01 [13], ≥ 20000 nM; with HLA-C*08:02, ≥ 20000 nM.

Take TVIDVNTGK: the Kd with HLA-C*04:01 [14], in the experiment with HLA-B*15:42, with HLA-B*45:06 and with HLA-B*83:01 was ≥ 5000 nM in each case.

Regarding VIYEAVIHL, the dissociation constant Kd with HLA-C*14:02 is 195 nM.
